PMC4505066, “Insights into the Recruitment of Class IIa Histone Deacetylases (HDACs) to the SMRT/NCoR Transcriptional Repression Complex” (The Journal of Biological Chemistry, 2015)

B1: wild type GSI motif peptide (…), SMRT amino acids 1450-1469 with an amino-terminal cysteine [modified: BODIPY-TMR coupled to the N-terminal cysteine; BODIPY-TMR coupled to the N-terminal cysteine] [not stated] (parent)
chain 1: CPRPLKEGSITQGTPLKYDTG
chain 2: TKPRFTTGLVYDTLMLKHQCTCGSSSSHPEHAGRIQSIWSRLQETGLRGKCECIRGRKATLEELQTVHSEAHTLLYGTNPLNRQKLDSKKLLGSLASVFVRLPCGGVGVDSDTIWNEVHSAGAARLAVGCVVELVFKVATGELKNGFAVVRPPGHHAEESTPMGFCYFNSVAVAAKLLQQRLSVSKILIVDWDVHHGNGTQQAFYSDPSVLYMSLHRYDDGNFFPGSGAPDEVGTGPGVGFNVNMAFTGGLDPPMGDAEYLAAFRTVVMPIASEFAPDVVLVSSGFDAVEGHPTPLGGYNLSARCFGYLTKQLMGLAGGRIVLALEGGHDLTAICDASEACVSALLGNELDPLPEKVLQQRPNANAVRSMEKVMEIHSKYWRCLQRTTSTAGRSLIEAQTCENEEAETVT

Variants of: B1
Assay: fluorescence anisotropy
Conditions: with HDAC4 catalytic domain

Kd, > 1 mM:
chain 1 I10D
chain 1 I10A
chain 1 G8A
chain 1 T14S
chain 1 S9T
chain 1 S9A
chain 1 G13A
